# From the Human Domainome abundance scans (Beltran et al. 2025)
# ± gives the uncertainty stated by the source.
# B1: Steroid hormone receptor ERR2, residues 100 to 176; numbered along this chain, O95718 (parent)
# chain: KRLCLVCGDIASGYHYGVASCEACKAFFKRTIQGNIEYSCPATNECEITKRRRKSCQACRFMKCLKVGMLKEGVRLD
# Variants of: B1
# Assay: abundance fitness (aPCA) (normalised: wild type 0, dead -1); higher = more abundant; growth selection in yeast, the domain comes from the species named
# Conditions: Homo sapiens
row,Variant,abundance fitness
1,KRLCLVCGDIASGYHYGVASCEACKAFFKRTIQGNIEYSCPSTNECEITKRRRKSCQACRFMKCLKVGMLKEGVRLD [A42S],-0.098 ± 0.05
2,KRLCLVCGDIASGYHYGVASCEACKAFFKRTIQGNIEYSCPMTNECEITKRRRKSCQACRFMKCLKVGMLKEGVRLD [A42M],-0.033 ± 0.071
3,KRLCLVCGDIASGYHYGVASCEACKAFFKRTIQGNIEYSCPHTNECEITKRRRKSCQACRFMKCLKVGMLKEGVRLD [A42H],-0.445 ± 0.13
4,KRLCLVCGDIASGYHYGVASCEACKAFFKRTIQGNIEYSCPGTNECEITKRRRKSCQACRFMKCLKVGMLKEGVRLD [A42G],-0.025 ± 0.037
5,KRLCLVCGDIASGYHYGVASCEACKAFFKRTIQGNIEYSCPKTNECEITKRRRKSCQACRFMKCLKVGMLKEGVRLD [A42K],-0.087 ± 0.062
6,KRLCLVCGDIASGYHYGVASCEACKAFFKRTIQGNIEYSCPITNECEITKRRRKSCQACRFMKCLKVGMLKEGVRLD [A42I],0.027 ± 0.094
7,KRLCLVCGDIASGYHYGVASCEACKAFFKRTIQGNIEYSCPWTNECEITKRRRKSCQACRFMKCLKVGMLKEGVRLD [A42W],-0.043 ± 0.043
8,KRLCLVCGDIASGYHYGVASCEACKAFFKRTIQGNIEYSCPQTNECEITKRRRKSCQACRFMKCLKVGMLKEGVRLD [A42Q],-0.191 ± 0.068
9,KRLCLVCGDIASGYHYGVASCEACKAFFKRTIQGNIEYSCPVTNECEITKRRRKSCQACRFMKCLKVGMLKEGVRLD [A42V],-0.153 ± 0.049
10,KRLCLVCGDIASGYHYGVASCEACKAFFKRTIQGNIEYSCPFTNECEITKRRRKSCQACRFMKCLKVGMLKEGVRLD [A42F],-0.209 ± 0.09
11,KRLCLVCGDIASGYHYGVASCEACKAFFKRTIQGNIEYSCPLTNECEITKRRRKSCQACRFMKCLKVGMLKEGVRLD [A42L],-0.064 ± 0.042
12,KRLCLVCGDIASGYHYGVASCEACKAFFKRTIQGNIEYSCPRTNECEITKRRRKSCQACRFMKCLKVGMLKEGVRLD [A42R],-0.024 ± 0.039
13,KRLCLVCGDIASGYHYGVASCEACKAFFKRTIQGNIEYSCPATDECEITKRRRKSCQACRFMKCLKVGMLKEGVRLD [N44D],0.119 ± 0.086
14,KRLCLVCGDIASGYHYGVASCEACKAFFKRTIQGNIEYSCPATEECEITKRRRKSCQACRFMKCLKVGMLKEGVRLD [N44E],0.022 ± 0.048
15,KRLCLVCGDIASGYHYGVASCEACKAFFKRTIQGNIEYSCPATHECEITKRRRKSCQACRFMKCLKVGMLKEGVRLD [N44H],-0.314 ± 0.12
16,KRLCLVCGDIASGYHYGVASCEACKAFFKRTIQGNIEYSCPATCECEITKRRRKSCQACRFMKCLKVGMLKEGVRLD [N44C],-0.473 ± 0.13
17,KRLCLVCGDIASGYHYGVASCEACKAFFKRTIQGNIEYSCPATGECEITKRRRKSCQACRFMKCLKVGMLKEGVRLD [N44G],0.117 ± 0.038
18,KRLCLVCGDIASGYHYGVASCEACKAFFKRTIQGNIEYSCPATFECEITKRRRKSCQACRFMKCLKVGMLKEGVRLD [N44F],0.068 ± 0.14

row,Variant,abundance fitness
1,KRLCLVCGDIASGYHYGVASCEACKAFFKRTIQGNIEYSCPARNECEITKRRRKSCQACRFMKCLKVGMLKEGVRLD [T43R],0.043 ± 0.035
2,KRLCLVCGDIASGYHYGVASCEACKAFFKRTIQGNIEYSCPAINECEITKRRRKSCQACRFMKCLKVGMLKEGVRLD [T43I],-0.065 ± 0.1
3,KRLCLVCGDIASGYHYGVASCEACKAFFKRTIQGNIEYSCPAQNECEITKRRRKSCQACRFMKCLKVGMLKEGVRLD [T43Q],-0.175 ± 0.068
4,KRLCLVCGDIASGYHYGVASCEACKAFFKRTIQGNIEYSCPAVNECEITKRRRKSCQACRFMKCLKVGMLKEGVRLD [T43V],-0.012 ± 0.044
5,KRLCLVCGDIASGYHYGVASCEACKAFFKRTIQGNIEYSCPAHNECEITKRRRKSCQACRFMKCLKVGMLKEGVRLD [T43H],-0.459 ± 0.15
6,KRLCLVCGDIASGYHYGVASCEACKAFFKRTIQGNIEYSCPAWNECEITKRRRKSCQACRFMKCLKVGMLKEGVRLD [T43W],-0.021 ± 0.046
7,KRLCLVCGDIASGYHYGVASCEACKAFFKRTIQGNIEYSCPANNECEITKRRRKSCQACRFMKCLKVGMLKEGVRLD [T43N],-0.085 ± 0.083
8,KRLCLVCGDIASGYHYGVASCEACKAFFKRTIQGNIEYSCPALNECEITKRRRKSCQACRFMKCLKVGMLKEGVRLD [T43L],-0.234 ± 0.05
9,KRLCLVCGDIASGYHYGVASCEACKAFFKRTIQGNIEYSCPAANECEITKRRRKSCQACRFMKCLKVGMLKEGVRLD [T43A],0.081 ± 0.046
10,KRLCLVCGDIASGYHYGVASCEACKAFFKRTIQGNIEYSCPAKNECEITKRRRKSCQACRFMKCLKVGMLKEGVRLD [T43K],0.212 ± 0.051
11,KRLCLVCGDIASGYHYGVASCEACKAFFKRTIQGNIEYSCPAENECEITKRRRKSCQACRFMKCLKVGMLKEGVRLD [T43E],0.042 ± 0.053
12,KRLCLVCGDIASGYHYGVASCEACKAFFKRTIQGNIEYSCPASNECEITKRRRKSCQACRFMKCLKVGMLKEGVRLD [T43S],-0.237 ± 0.051
13,KRLCLVCGDIASGYHYGVASCEACKAFFKRTIQGNIEYSCPADNECEITKRRRKSCQACRFMKCLKVGMLKEGVRLD [T43D],-0.152 ± 0.086
14,KRLCLVCGDIASGYHYGVASCEACKAFFKRTIQGNIEYSCPAFNECEITKRRRKSCQACRFMKCLKVGMLKEGVRLD [T43F],-0.558 ± 0.14
15,KRLCLVCGDIASGYHYGVASCEACKAFFKRTIQGNIEYSCPAPNECEITKRRRKSCQACRFMKCLKVGMLKEGVRLD [T43P],-0.393 ± 0.086
16,KRLCLVCGDIASGYHYGVASCEACKAFFKRTIQGNIEYSCPAMNECEITKRRRKSCQACRFMKCLKVGMLKEGVRLD [T43M],0.03 ± 0.061
17,KRLCLVCGDIASGYHYGVASCEACKAFFKRTIQGNIEYSCPAYNECEITKRRRKSCQACRFMKCLKVGMLKEGVRLD [T43Y],-0.252 ± 0.18
18,KRLCLVCGDIASGYHYGVASCEACKAFFKRTIQGNIEYSCPACNECEITKRRRKSCQACRFMKCLKVGMLKEGVRLD [T43C],-0.651 ± 0.11
